The nature of the series: protein stability index of a GFP-peptide fusion (GPS, HEK-293T) (PSI 1-6); higher = more stable.
Where [1] appears, read: treatment: DMSO, c terminus: a fixed tail appended.
[2] abbreviates: treatment: MLN4924 1 uM, 8 h, c terminus: a fixed tail appended.
The mark [3] stands for this setting: treatment: DMSO, c terminus: native.
The mark [4] stands for this setting: treatment: MLN4924 1 uM, 8 h, c terminus: native.

Experimental findings from the supplement of paper PMC10567573 are described below.

± gives the standard deviation.
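Note: 24-mer peptide tiles fused after GFP, lentivirally expressed, FACS-sorted into six equal bins by GFP/DsRed ratio, decoded by Illumina sequencing, PSI is the read-weighted mean bin number.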

Consider LFRCIQNMPETLPNNSCYSAGIAK [TNFSF13B], for which the protein stability index by setting is: under setting [1], 2.63 ± 0.3; under setting [2], 2.68 ± 0.16.
Taken in the same sequence, the figures for LFYDDYYEDGEVEEEADSCFGDDE [CDC34] were 4.79 ± 0.17 and 4.78 ± 0.3.
Turning to LGHAAAFSDDCDLPSAQDINRLVG [GLT8D2], the protein stability index reads like this: under setting [1], 4.23 ± 0.18; under setting [2], 4.43 ± 0.24.
Taken in the same sequence, the figures for LGKLPPQYALELLTVYAWERGSMK [OAS1] were 2.31 ± 0.61 and 2.36 ± 0.41.
On to LGMVGLFGTIISGIQLLIVEYKDI [SLC35F2], for which the protein stability index by setting is: under setting [1], 3.16 ± 0.42; under setting [2], 3.53 ± 0.41.
Consider LGRFSLTPAEGDTEEDDGFVDILE [CDC25B], for which the protein stability index under setting [1] turned out to be 4.66 ± 0.74 and the protein stability index under setting [2] stood at 5.06 ± 0.1.
As for LGSKHKVCMDLRANLKQVKKEDTE [TNNI2], the protein stability index reads like this: under setting [1], 4.76 ± 0.16; under setting [2], 4.94 ± 0.23.
On the same counts, the results for LHDCAESGSLEILQLLLGCKARME [FEM1A] are 2.41 ± 0.31 and 2.52 ± 0.29.
As for LIESEAPPKASEQETAKEEDGSVE [C18orf25], the protein stability index came out at 5.59 ± 0.31 under setting [1] and 5.77 ± 0.26 under setting [2].
For LIGAAAFLGGVVRMTISLTVILIE [CLCN6], the protein stability index worked out at 3.27 ± 0.53 under setting [1] and 2.75 ± 1.3 under setting [2].
On the same counts, the results for LIIQAGIKEVIFMSDKYHDSDEAT [DCTD] are 2.16 ± 0.28 and 2.08 ± 0.089.
Taken in the same sequence, the figures for LKENNFQPYPLPHVRHMAYQLCHA [CLK3] were 2.46 ± 0.12 and 2.21 ± 0.26.
On the same counts, the results for LKQLKHPNLVNLIEVFRRKRKMHL [CDKL4] are 2.44 ± 0.43 and 2.58 ± 0.3.
With LKRSIPQVSPVRRAPSRRHGVRAK [CPN1], the protein stability index by setting is: under setting [1], 4.58 ± 0.23; under setting [2], 4.67 ± 0.17.
Taken in the same sequence, the figures for LKTQSLEGKRKAFYTCASHVTVVI [OR4A15] were 2.91 ± 0.35 and 3.24 ± 0.46.
On the same counts, the results for LLAWRCTKLSLLAIHGYTVWAHNL [FBXO33] are 3.15 ± 0.21 and 3.13 ± 0.34.
Taken in the same sequence, the figures for LLDHNANIDIQNGFLLRYAVIKSN [ASB7] were 2.53 ± 0.17 and 2.14 ± 0.2.
Consider LLDLQPDFSSGGAAAAAAPAPPPP [SNAP91], for which the protein stability index by setting is: under setting [1], 4.68 ± 0.23; under setting [2], 4.77 ± 0.22.
Taken in the same sequence, the figures for LLEKDYFGLTYRDAENQKNWLDPA [EPB41L3] were 3.1 ± 0.29 and 3.48 ± 0.29.
As for LLFDMTTHPVTNTTEKQRLVKKLQ [GOLPH3L], the protein stability index by setting is: under setting [1], 2.61 ± 0.26; under setting [2], 2.83 ± 0.41.
Taken in the same sequence, the figures for LLFMTSRVRFGQQKRYQDWFQRQY [INTS3] were 1.99 ± 0.58 and 2.24 ± 0.64.
Taken in the same sequence, the figures for LLRQQLMRAQAQEQERRERREQAA [TFE3] were 3.82 ± 0.27 and 4.2 ± 0.15.
Taken in the same sequence, the figures for LLSGAFKKRRLPPVHIHPAFARQA [FOXJ1] were 2.21 ± 0.1 and 2.54 ± 0.36.
For LLVFLILVGIFILAVSRPRSSPDD [SCARA5], the protein stability index runs as follows: under setting [1], 2.08 ± 0.43; under setting [2], 2.07 ± 0.19.
On the same counts, the results for LLYKDGFSTILHLLLGSPHPAATA [LPCAT4] are 2.71 ± 0.28 and 2.57 ± 0.54.
On the same counts, the results for LNEMRDQYEKMAEKNRKDAEDWFF [KRT17] are 4.14 ± 0.2 and 4.1 ± 0.19.
Taken in the same sequence, the figures for LNLGSGTGYLSSMVGLILGPFGVN [PCMTD2] were 2.42 ± 0.51 and 2.48 ± 0.38.
As to LNLGSGTGYLSTMVGLILGPFGIN [PCMTD1], the protein stability index is 3.33 ± 0.73 under setting [1] and 2.87 ± 0.49 under setting [2].
Taken in the same sequence, the figures for LNRRNGSLRIALSEHLKQRREVAK [EDNRA] were 3.27 ± 0.45 and 3.25 ± 0.27.
On the same counts, the results for LNVGNERYVFEAVIRWIAHDTEIR [GAN] are 2.53 ± 0.57 and 2.61 ± 0.56.
In the case of LPELLLGALPVGSNLTSNLASLVS [RETREG3], the protein stability index runs as follows: under setting [1], 2.17 ± 0.2; under setting [2], 2.17 ± 0.28.
Taken in the same sequence, the figures for LPEQVDIIISEPMGYMLFNERMLE [CARM1] were 2.24 ± 0.69 and 2.12 ± 0.42.
Take LPFKPFAIILPILLNIRVATKYV [MIA2]: the protein stability index reads like this: under setting [3], 2.42 ± 0.81; under setting [4], 3.36 ± 1.6.
In the case of LPLLSPKFLVGTVGSDPLIKSDEE [KLHL20], the protein stability index reads like this: under setting [1], 4.33 ± 0.051; under setting [2], 4.43 ± 0.073.
Take LPRGATAAVLAPDSSNASSEPSS [SEPHS2]: the protein stability index turned out to be 5.31 ± 0.21 under setting [3] and 5.53 ± 0.17 under setting [4].
On to LQAIKAAIMLLPDENREVLQTLLY [DLC1], for which the protein stability index stood at 2.23 ± 0.42 under setting [1] and 2.22 ± 0.16 under setting [2].
On the same counts, the results for LQALDPQQCVDKESSLGSESEEEE [SLC22A15] are 5.56 ± 0.28 and 5.59 ± 0.1.
On the same counts, the results for LQAQVQYQQQHEQQKKDLEILHQQ [SASS6] are 4.73 ± 0.14 and 4.93 ± 0.19.
Take LQLEACGMRRKSLLTRKVICKSDA [GOLPH3]: the protein stability index reads like this: under setting [1], 2.95 ± 0.58; under setting [2], 3.07 ± 0.43.
Taken in the same sequence, the figures for LQQLRARLQGLEADCVRGPDGVCL [PBXIP1] were 2.7 ± 0.29 and 3.01 ± 0.35.
On the same counts, the results for LQRGEALSALDSKANNLSSLSKKY [SEC22B] are 4.46 ± 0.11 and 4.34 ± 0.23.
On the same counts, the results for LQSAPDVKGRVRCLTAGPEVAAQL [ZSWIM9] are 3.51 ± 0.28 and 3.6 ± 0.058.
Regarding LQVTEDVNSSIKTFFCPNDTYNDM [CLCN6], the protein stability index under setting [1] stood at 3.66 ± 0.22 and the protein stability index under setting [2] was 3.65 ± 0.25.
Taken in the same sequence, the figures for LRALGAQIEKTTNREACRDLSGRR [SDE2] were 4.21 ± 0.15 and 4.48 ± 0.26.
On the same counts, the results for LRGGGQVLLGWTLHYFPFFLMGRV [POMT2] are 3.01 ± 0.44 and 2.99 ± 0.37.
On the same counts, the results for LRHFFLVEDLVDSLKLALLFYILT [RTN2] are 2.79 ± 0.79 and 2.45 ± 0.15.
As to LRIPEGPIDQGPAIGRVRVLEEQL [FUT8], the protein stability index is, setting by setting: under setting [1], 3.69 ± 0.37; under setting [2], 3.85 ± 0.19.
On the same counts, the results for LRQQLVVSKELRMYDEKAHEWKSL [KLHL13] are 2.93 ± 0.11 and 2.98 ± 0.15.
Taken in the same sequence, the figures for LRRAWFSWPRASPASGASSIKPEA [SCNN1D] were 2.99 ± 0.18 and 3.04 ± 0.19.
On the same counts, the results for LRVHLKMVDSFHRTSLQYGIMCLK [PPFIA4] are 2.99 ± 0.047 and 2.9 ± 1.
As for LSKEYWDCLEGKKSKHAPRGTHLW [ELF3], the protein stability index reads like this: under setting [1], 2.82 ± 0.45; under setting [2], 3.17 ± 0.24.
Taken in the same sequence, the figures for LSNLTHVLYPVPLESYEDIHGTLH [PRAME] were 2.5 ± 0.3 and 2.69 ± 0.27.
Taken in the same sequence, the figures for LSQALNGLSDRAKEAKEFLVQLRN [TRIM9] were 3.29 ± 0.41 and 3.26 ± 0.32.
Taken in the same sequence, the figures for LSVDPEEEREEGPPRIPQADQWKS [RHOBTB1] were 5.28 ± 0.075 and 5.26 ± 0.24.
Consider LTCALMLLNTDLHGHNIGKKMSCQ [PSD2], for which the protein stability index reads like this: under setting [1], 2.54 ± 0.49; under setting [2], 2.41 ± 0.74.
On the same counts, the results for LTFFAFLHCWLNAFAEMLRFGDRM [SOAT1] are 3.4 ± 0.23 and 2.9 ± 0.5.
Taken in the same sequence, the figures for LTFLTKQEILLAHRRFCELLPQEQ [CIB1] were 2.4 ± 0.44 and 2.55 ± 0.19.
Taken in the same sequence, the figures for LTIMPYNSAHHCVVEVENFLFVLG [KLHL14] were 3.26 ± 0.64 and 3.02 ± 0.32.
For LTSADRETAEEVSARIVQVVTAEA [MAP2], the protein stability index turned out to be 4.86 ± 0.28 under setting [1] and 4.89 ± 0.42 under setting [2].
On the same counts, the results for LTTFQDQLNRRGEFIQEIRRQLEA [OAS1] are 3.3 ± 0.35 and 3.29 ± 0.27.
On the same counts, the results for LTVLPKLQARERGEEQVELSTIEE [C2CD2L] are 5.14 ± 0.17 and 4.96 ± 0.54.
On the same counts, the results for LVDQVTGVSRGVGFIRFDKRIEAE [ELAVL3] are 2.97 ± 0.52 and 2.88 ± 0.62.
LVGLTVIGAFLNLVVLRFLTMNSE [KCNK9]: the protein stability index amounted to 3.42 ± 0.46 under setting [1] and 3.42 ± 0.25 under setting [2].
On the same counts, the results for LVHVMERSLSPSLSSVDMRMTSSP [RAD54B] are 2.51 ± 0.34 and 2.58 ± 0.36.
LVQVESVNLQVATYSKFQPQSPDF [UFD1] had a protein stability index under setting [1] of 2.32 ± 0.22 and a protein stability index under setting [2] of 2.35 ± 0.32.
Taken in the same sequence, the figures for LVRDWSFPYEYSYGLQGGMAFLDK [ATL3] were 1.96 ± 0.23 and 2.19 ± 0.38.
Taken in the same sequence, the figures for LVVAVAAVSCVFLAFVIVLLAHRL [PCDHGA10] were 2.9 ± 0.83 and 2.83 ± 0.15.
Turning to LYGLGSGSSYVQNGTGNAYEEEAN [CNOT7], the protein stability index reads like this: under setting [1], 4.74 ± 0.2; under setting [2], 4.84 ± 0.24.
With LYLNLALHLASDFFLKHPDKDVRL [PDS5B], the protein stability index worked out at 2.73 ± 0.41 under setting [1] and 3.29 ± 0.27 under setting [2].
Taken in the same sequence, the figures for LYPREGKYNHAACFGLQPGCLLPD [NLN] were 2.96 ± 0.33 and 3.1 ± 0.44.
On the same counts, the results for MAAGGRMEDGSLDITQSIEDDPLL [TMEM192] are 4.7 ± 0.29 and 4.87 ± 0.16.
MAAGGSGVGGKRSSKSDADSGFLG [NOP53]: the protein stability index is, setting by setting: under setting [1], 3.57 ± 0.22; under setting [2], 3.96 ± 0.12.
